What was measured:
[1] = Ketoreductase (KRED101)/BspFDH2 coupled reduction of ethyl 4-chloro-3-oxobutanoate; assay type: biochemical
Description: NADP^+ (10 mM, 1 mL) and BspFDH2 (17 mg/mL, 500 μL) were then added and the reaction shaken for 30 minutes at room temperature. After 30 minutes, KRED101 (40 mg/mL, 300 μL) was added. The reaction was monitored by GC-MS (Rt˜3.1 minutes). After 15 hr, the reaction mixture was extracted by DCM (3×1 mL) and combined organic phases were dried and the solvent removed to afford ethyl 4-chloro-3-hydroxybutanoate (6 above, >99% conversion based on GC chromatogram and HPLC). The GC-MS data were collected as example 1a. Chiral HPLC was performed on a Chiralcel OB packed column (0.46 cm I.D.×25 cm L; Daicel Chemical Industries, Japan) at 217 nm, with an eluent of n-hexane/2-propanol (9.3:0.7, v/v) at a flow rate of 1 mL/min. IR, vmax (thin film), 3600-3100 (br, O—H), 1731 (s, C═O) cm^−1. ^1H-NMR (400 MHz, Chloroform-d): δ ppm 1.29 (t, J=7.07 Hz, 3H), 2.55-2.70 (m, 2H), 3.62 (dd, J=5.31, 2.78 Hz, 2H) 4.19 (q, J=7.07 Hz, 2H), 4.23-4.30 (m, 1H). ^13C-NMR (400 MHz, Chloroform-d): δ ppm 14.11, 38.41, 48.11, 61.01, 67.92, 171.78. GC-MS (CI^+): m/z Calcd for C6H12O3Cl [M+H]+=167, C6H15O3Cl [M+NH4]^+=184; Found: 167 (M+H)^+, 184 (M+NH4)^+. HPLC-UV/Vis: (tR=7.9 minutes, tS=9.4 minutes), >99% e.e. of S.
D-(S)-4-chloro-3-hydroxybutanoate ethyl ester is a key chiral pharmaceutical intermediate used in the enantioselective synthesis of, for example, slagenin B and C and HMG-CoA reductase inhibitors. […]

[2] = Cyclohexanone monooxygenase (CHMO)/BspFDH2 coupled Baeyer-Villiger oxidation of cyclohexanone; assay type: biochemical; details: coupled with CHMO
Description: By coupling the enzymatic action of BspFDH2 with that of cyclohexanone monooxygenase (CHMO), oxygen C—C bond insertion, a Baeyer-Viliger (B-V) oxidation (see FIG. 4b), converted (>99% conversion, complete within 4 hours) cyclohexanone (3) to caprolactone (4) with NADPH regeneration.
NADP+ (20 mM, 1 mL) and BspFDH2 (17 mg/mL, 500 μL) were then added and the reaction shaken for 30 minutes at room temperature. After 30 minutes, pre-dialysed CHMO (2 mg/mL, 300 μL) was then added and the reaction shaken at 37° C. The reaction was monitored by GC-MS (Rt˜3.1 minutes). After 4 hr, the reaction mixture was extracted by DCM (3×1 mL) and the combined organic phase was dried and the solvent removed to afford oxepan-2-one (4 above, >99% conversion based on GC chromatogram).

[3] = Thermal stability study (remaining activity after incubation); assay type: physicochemical
Description: FIGS. 19 and 20—show the effect of temperature on the stability of the Bsp184FDH and Bsp383FDH enzymes. In FIG. […] In FIG. 20 (1) Bsp184FDH (2.1 mg/mL) and (2) Bsp383FDH (1.5 mg/mL) were incubated at 60° C. and 70° C. for 48 hours period in a similar way. Remaining activities were assayed under standard assay conditions and were expressed as the percentage of activities.
Thermal stability for purified wild-type BcenFDH1 (Bsp184FDH) and BspFDH2 (Bsp383FDH) catalyzed formate oxidation were investigated by Uv/V is spectrophotometry in a 96-well plate format. The results are illustrated in FIGS. 19 and 20. […] In addition, time based-thermal stability for purified wild-type BcenFDH1 (Bsp184FDH) and BspFDH2 (Bsp383FDH) catalyzed formate oxidation were also investigated at 60° C. and 70° C. over 48 hours in a similar way. The samples were spun down briefly to remove any precipitations before use. 10 μL of heat-treated BcenFDH1 and BspFDH2 were added into each well and equilibrated for 3 min at 30° C. after adding 170 μL of 200 mM sodium formate (dissolving in 50 mM sodium phosphate buffer, pH 7.0.) The reaction was initiated by addition of 20 μL of NADP^+ solution from a freshly prepared stock of 20 mM using an 8-channel pipette. The plate was then immediately placed into the plate reader. The plate was shaken for 5 seconds to ensure thorough mixing. Time-based measurements were recorded every 10 s for 10 min. The rate of formate oxidation was calculated using the absorption coefficient of 3.38 mM^−1 (for 200 μL).

[4] = Assay of enzyme activity (specific activity, U/mg); assay type: biochemical; details: unit = μmol formate oxidized per min in the presence of co-factor; This work
Description: The reaction was initiated by addition of NAD^+. The total volume of the reaction mixture was 1 mL. Specific activity (U/mg enzyme) was defined as number of μmols of product formed per mg enzyme per minute.

[5] = pH profile determination of FDH-catalysed formate oxidation; assay type: biochemical; details: pHs as low 4 or as high as 10.5
Description: The pH profiles for BcenFDH1 (Bsp184FDH) and BspFDH2 (Bsp383FDH) catalyzed formate oxidation, shown in FIG. 13(a) and (b), were investigated by Uv/Vis spectrophotometry in a 96-well plate format. […] From this series, 170 μL was transferred into wells of the 96-well plate. 10 μL of the FDHs from a stock solution solution (64.1 μM for BcenFDH1 (Bsp184FDH) and 78.0 μM for BspFDH2 (Bsp383FDH)) were added into each well and equilibrated for 3 min at 30° C. The reaction was initiated by addition of 20 μL of NAD^+ solution from a freshly prepared stock (10 mM) using an 8-channel pipette. The plate was then immediately placed into the plate reader. The plate was shaken for 5 s to ensure thorough mixing, and then time-based measurements were recorded every 15 s for 10 min. The rate of formate oxidation was calculated using an extinction coefficient of 3.38 mM^−1 (for 200 μL).

reaction complete within ([1]; coupled with KRED101): ≤ 30 min
reaction complete within [2]: ≤ 4 h
B1: Bsp383FDH: wild type FDH from Burkholderia sp 383, Seq ID No: 1, C-terminal His-tagged (protein, listed as Burkholderia sp.)
chain: MATVLCVLYPDPVDGYPPRYVRDAIPVITHYADGQTAPTPAGPPGFQPGELVGCVSGALGLRGYMEAHGHTLIVTSDKDSPDSEFERRLPEADVVISQPFWPAYLTAERIARAPKLKLALTAGIGSDHVDLDAAARARITVAEVTGSNSISVAEHVVMTTLALVRNYLPSHAIAQQGGWNIADCVSRSYDVEGMHFGTVGAGRIGLAVLRRLKPFGLQLHYTQRHRLDASIEQELGLTYHADAASLASAVDIVNLQIPLYPSTEHLFDAAMIARMKRGAYLINTARAKLVDRDAVVNALTSGHLAGYGGDVWFPQPAPADHPWRTMPFNGMTPHISGTSLSAQARYAAGTLEILQCWFDGKPIRNEYLIVDGGTLAGTGAQSYRLT
modifications: C-terminal His tag
conversion of ethyl 4-chloro-3-oxobutanoate to ethyl 4-chloro-3-hydroxybutanoate ([1]; coupled with KRED101, NADPH regeneration, GC and HPLC): > 99%
conversion of cyclohexanone to caprolactone (oxepan-2-one) ([2]; NADPH regeneration, GC): > 99%
temperature at which the enzymes denature [3]: 80 °C
activity lost upon incubation ([3]; 55° C. for 2 hours): no activity was lost
stability at room temperature ([3]; room temperature for weeks): stable
activity with NADP^+ [4]: 8.64 U/mg
activity with NAD^+ [4]: 1.09 U/mg
activity at extreme pH [5]: highly active
